{"source": "paper PMC7335352", "key": {"[1]": {"target": "condensin II holocomplex (CII) (Homo sapiens, UniProt O95347;Q9NTJ3;P42695;Q86XI2;Q6IBW4 1-1197;1-1288;1-1498;1-1143;1-605)", "test": "fluorescence polarization; no ATP; 75 mM NaCl; FP: 20 mM Tris pH 7.5, 75 mM NaCl, 2.5% glycerol, 1 mM DTT, room temp, 50 nM DNA; EMSA: 20 mM HEPES pH 8, 300 mM KCl, 5 mM MgCl2, 1 mM DTT, 10% glycerol, on ice; curtains: 40 mM Tris-HCl pH 7.5, 125 mM NaCl, 5 mM MgCl2, 1 mM DTT, 0.5 mg/mL BSA, 37 C", "conditions": "protein: recombinant; tags: 6xHis-SMC4; CAP-H2 2xStrep; copies: 1;1;1;1;1; label: 6-FAM on reverse strand; blunt"}, "[2]": {"target": "condensin I holocomplex (CI) (Homo sapiens, UniProt O95347;Q9NTJ3;Q15021;Q9BPX3;Q15003 1-1197;1-1288;1-1401;1-1015;1-741)", "test": "fluorescence polarization; no ATP; 75 mM NaCl; FP: 20 mM Tris pH 7.5, 75 mM NaCl, 2.5% glycerol, 1 mM DTT, room temp, 50 nM DNA; EMSA: 20 mM HEPES pH 8, 300 mM KCl, 5 mM MgCl2, 1 mM DTT, 10% glycerol, on ice; curtains: 40 mM Tris-HCl pH 7.5, 125 mM NaCl, 5 mM MgCl2, 1 mM DTT, 0.5 mg/mL BSA, 37 C", "conditions": "protein: recombinant; tags: 6xHis-SMC4; CAP-H 2xStrep; copies: 1;1;1;1;1; label: 6-FAM on reverse strand; blunt"}}, "data": [{"binder": "30-bp dsDNA, 6-FAM (dsDNA) DNA 1: CTGTCACACCCTGTCACACCTGTCACAC DNA 2: GTGTGACAGGTGTGACAGGGTGTGACAG", "values": [{"measurement": "Kd", "setting": "[1]", "result": "1200 ± 100", "unit": "nM"}, {"measurement": "Kd", "setting": "[2]", "result": "3000 ± 300", "unit": "nM"}]}]}
